{"source": "patent US20100222258A1", "about": "(KABUSHIKI KAISHA HAYASHIBARA SEIBUTSU KAGAKU KENKYUJO, published 2010)", "binders": {"B1": {"name": "TNF mutant protein of clone No. 10 (ligand)", "chain": "VRSSSRTPSDMPVAHVVANPQAEGQLQWLNRRANALLANGVELRDNQLVVPSEGLYLIYSQVLFSGQGCPSTHVLLTHTISRIAVSYQTPVNLLSAIRSPCQRETPEGAEANPWYEPIYLGGVFQLEPGDRLSAEINRPDYLDFKDTGQVYFGIIAL", "notes": "Mutant of lysine-replaced TNF, made in E. coli"}, "B2": {"name": "TNF mutant protein of clone No. 13 (ligand)", "chain": "B1 chain with K145A, T147D", "notes": "as for B1"}, "B3": {"name": "TNF mutant protein of clone No. 11 (ligand)", "chain": "B1 chain with K145R, D146T, T147D", "notes": "as for B1"}, "B4": {"name": "TNF mutant protein of clone No. 12 (ligand)", "chain": "B1 chain with K145R, D146E", "notes": "as for B1"}, "B5": {"name": "TNF mutant protein of clone No. 35 (ligand)", "chain": "B1 chain with A84T, V85P, S86A, Y87I, Q88N, T89R, K145A, D146E, T147S", "notes": "Mutant of lysine-replaced TNF, made in E. coli; also called TNF antagonist of clone No. 35"}}, "key": {"[1]": {"molecular_target": "T1, TNF-R1 (a protein having the amino acid sequence, Accession No. M58286 registered at GENBANK) (UniProt P19438 30-211, limits assumed)", "T1 construct": "also called TNF receptor having a molecular weight of 55 kilo daltons", "T1 sequence (looked up)": "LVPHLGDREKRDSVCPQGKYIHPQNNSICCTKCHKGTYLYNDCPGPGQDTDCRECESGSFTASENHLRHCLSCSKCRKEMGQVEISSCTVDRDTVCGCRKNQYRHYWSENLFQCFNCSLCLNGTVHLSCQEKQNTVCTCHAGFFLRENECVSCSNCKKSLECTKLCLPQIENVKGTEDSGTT", "assay": "SPR (BIACORE 2000), receptor on sensor tip; grade 1 = 0.001 to 0.1 time that of recombinant TNF-α", "excerpt": "(§1) Using the above detector based on surface plasmon resonance effect again, the resulting clones binding to TNF-R1 (or TNF-R2) were subjected to the remaining sensor tip conjugated with TNF-R2 (or TNF-R1) to measure receptor binding affinity and select clones having a variation of receptor binding affinity. […] The resulting DNAs were digested with restrict enzymes NdeI and BamHI to obtain DNA fragments. The resulting DNA fragments were introduced into a plasmid vector containing T7 promoter region, T7 terminator region, ampicillin resistant gene region and ColE1/Ori region (product name “pET-3a”, manufactured by “Novagen®” (EMD Biosciences, Inc.)) at the position of the above restriction sites. The resulting plasmid was introduced into E. coli BL21DE3 strain to obtain a transformed E. coli for producing the TNF mutant proteins. The obtained transformed E. coli was cultured according to usual method and centrifuged to collect E. coli pellet. The resulting pellet was washed twice with TES buffer (pH 8.0) (20 mM Tris-HCl, 10 mM ethylene diamine tetraacetic acid and 0.5 M sodium chloride) and admixed with TES buffer (pH 8.0) containing 0.2 mg/ml lysozyme. The resulting suspension was sonicated according to usual manner, and centrifuged to collect a precipitate containing the produced TNF mutant protein. The resulting precipitate was treated three times in a manner of admixing with TES buffer containing 1 (w/w) % Triton X-100, removed from supernatant by centrifuging, admixed with 50 mM Tris-HCl (pH 7.0) containing 8 M guanidine hydrochloride and 50 mM dithiothreitol, with stirring for 16 hours at ambient temperature under shielded condition, and centrifuged to collect a supernatant. The resulting supernatant was gently admixed with 100 time volumes of a aqueous solution containing 1 M Tris, 0.9 (w/v) % sodium chloride, 0.4 M L-arginine chloride, 2.5 mM reduced glutathione, 0.5 mM oxidized glutathione and 0.05 (w/v) % Tween 20, and kept at 4° C. for 16 hours."}, "[2]": {"molecular_target": "T2, TNF-R2 (a protein having the amino acid sequence, Accession No. M55994 registered at GENBANK) (UniProt P20333 23-257, limits assumed)", "T2 construct": "also called TNF receptor with 75 kilo daltons", "T2 sequence (looked up)": "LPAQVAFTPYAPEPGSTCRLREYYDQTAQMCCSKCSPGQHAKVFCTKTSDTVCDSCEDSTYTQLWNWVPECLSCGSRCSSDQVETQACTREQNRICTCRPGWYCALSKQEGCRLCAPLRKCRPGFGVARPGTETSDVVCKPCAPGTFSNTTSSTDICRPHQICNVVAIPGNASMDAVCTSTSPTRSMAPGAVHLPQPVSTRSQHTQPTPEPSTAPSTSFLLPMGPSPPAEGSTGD", "assay": "SPR (BIACORE 2000), receptor on sensor tip; grade 4 = two times or more that of recombinant TNF-α", "excerpt": "as §1"}, "[3]": {"molecular_target": "T1, TNF-R1 (a protein having the amino acid …)", "assay": "SPR (BIACORE 2000), receptor on sensor tip; grade 2 = 0.5 to 0.1 time that of recombinant TNF-α", "excerpt": "as §1"}, "[4]": {"molecular_target": "T2, TNF-R2 (a protein having the amino acid …)", "assay": "SPR (BIACORE 2000), receptor on sensor tip; grade 3 = 0.5 to 2 times that of recombinant TNF-α", "excerpt": "as §1"}, "[5]": {"molecular_target": "T1, TNF-R1 (a protein having the amino acid …)", "assay": "SPR (BIACORE 2000), receptor on sensor tip; grade 0 = weakened to 0.001 or less of that of recombinant TNF-α", "excerpt": "as §1"}, "TNF-R1 on HEp-2 cells": {"molecular_target": "T3, TNF-R1 on HEp-2 cells (human, UniProt P19438 30-455)", "T3 sequence (looked up)": "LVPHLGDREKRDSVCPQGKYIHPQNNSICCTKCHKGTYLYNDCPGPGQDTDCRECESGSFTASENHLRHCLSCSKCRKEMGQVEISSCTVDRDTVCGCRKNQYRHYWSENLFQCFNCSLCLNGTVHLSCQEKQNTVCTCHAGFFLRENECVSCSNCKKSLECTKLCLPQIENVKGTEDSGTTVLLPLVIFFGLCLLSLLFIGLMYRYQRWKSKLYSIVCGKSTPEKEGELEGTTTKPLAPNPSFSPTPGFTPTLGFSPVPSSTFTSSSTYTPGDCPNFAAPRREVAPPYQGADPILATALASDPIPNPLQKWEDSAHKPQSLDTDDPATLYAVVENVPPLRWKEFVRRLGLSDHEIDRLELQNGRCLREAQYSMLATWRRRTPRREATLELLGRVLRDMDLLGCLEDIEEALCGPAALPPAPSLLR", "assay": "cell-based or functional assay"}, "TNF-R1 on L-M cells": {"molecular_target": "T4, TNF-R1 on L-M cells (mouse, UniProt P25118 30-454)", "T4 sequence (looked up)": "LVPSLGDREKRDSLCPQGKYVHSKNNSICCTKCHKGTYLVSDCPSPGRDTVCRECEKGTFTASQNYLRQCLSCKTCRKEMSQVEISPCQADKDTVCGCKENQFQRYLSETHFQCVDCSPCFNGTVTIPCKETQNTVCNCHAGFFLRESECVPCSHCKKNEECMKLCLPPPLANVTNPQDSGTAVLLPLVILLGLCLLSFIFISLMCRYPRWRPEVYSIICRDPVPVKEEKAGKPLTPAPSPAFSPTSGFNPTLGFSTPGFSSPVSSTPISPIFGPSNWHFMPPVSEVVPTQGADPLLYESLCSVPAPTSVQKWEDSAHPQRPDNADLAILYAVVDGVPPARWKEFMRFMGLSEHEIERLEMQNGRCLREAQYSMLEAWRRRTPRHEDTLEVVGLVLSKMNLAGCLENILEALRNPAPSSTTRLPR", "assay": "cell-based or functional assay"}, "[6]": {"molecular_target": "T1, TNF-R1 (a protein having the amino acid …)", "assay": "SPR (BIACORE 2000), receptor on sensor tip; grade 4 = two times or more that of recombinant TNF-α", "excerpt": "as §1"}, "[7]": {"molecular_target": "T2, TNF-R2 (a protein having the amino acid …)", "assay": "SPR (BIACORE 2000), receptor on sensor tip; grade 0 = weakened to 0.001 or less of that of recombinant TNF-α", "excerpt": "as §1"}}, "note": "Positions count from the first letter of the chain named.", "data": [{"binder": "B1", "values": [{"measurement": "binding affinity relative to recombinant TNF-α", "setting": "[1]", "result": "0.001 to 0.1", "unit": "fold"}, {"measurement": "binding affinity relative to recombinant TNF-α", "setting": "[2]", "result": "≥ 2", "unit": "fold"}]}, {"binder": "B2", "values": [{"measurement": "binding affinity relative to recombinant TNF-α", "setting": "[3]", "result": "0.1 to 0.5", "unit": "fold"}, {"measurement": "binding affinity relative to recombinant TNF-α", "setting": "[2]", "result": "≥ 2", "unit": "fold"}]}, {"binder": "B3", "values": [{"measurement": "binding affinity relative to recombinant TNF-α", "setting": "[4]", "result": "0.5 to 2", "unit": "fold"}, {"measurement": "binding affinity relative to recombinant TNF-α (grade)", "setting": "[5]", "result": "≤ 0.001 times that of recombinant TNF-α"}]}, {"binder": "B4", "values": [{"measurement": "binding affinity relative to recombinant TNF-α", "setting": "[4]", "result": "0.5 to 2", "unit": "fold"}, {"measurement": "binding affinity relative to recombinant TNF-α", "setting": "[1]", "result": "0.001 to 0.1", "unit": "fold"}]}, {"binder": "B5", "values": [{"measurement": "Viability (%) of HEp-2 cells, 10 ng/ml TNF-α + 1,000 ng/ml TNF antagonist (9 without antagonist)", "setting": "TNF-R1 on HEp-2 cells", "result": 10, "unit": "%"}, {"measurement": "Viability (%) of HEp-2 cells, 10 ng/ml TNF-α + 10,000 ng/ml TNF antagonist (9 without antagonist)", "setting": "TNF-R1 on HEp-2 cells", "result": 18, "unit": "%"}, {"measurement": "Viability (%) of HEp-2 cells, 10 ng/ml TNF-α + 100,000 ng/ml TNF antagonist (9 without antagonist)", "setting": "TNF-R1 on HEp-2 cells", "result": 86, "unit": "%"}, {"measurement": "Viability (%) of HEp-2 cells, 10 ng/ml TNF-α + 500,000 ng/ml TNF antagonist (9 without antagonist)", "setting": "TNF-R1 on HEp-2 cells", "result": 103, "unit": "%"}, {"measurement": "Viability (%) of L-M cells, 10 ng/ml TNF-α + 1,000 ng/ml TNF antagonist (17 without antagonist)", "setting": "TNF-R1 on L-M cells", "result": 43, "unit": "%"}, {"measurement": "Viability (%) of L-M cells, 10 ng/ml TNF-α + 10,000 ng/ml TNF antagonist (17 without antagonist)", "setting": "TNF-R1 on L-M cells", "result": 58, "unit": "%"}, {"measurement": "Viability (%) of L-M cells, 10 ng/ml TNF-α + 100,000 ng/ml TNF antagonist (17 without antagonist)", "setting": "TNF-R1 on L-M cells", "result": 61, "unit": "%"}, {"measurement": "Viability (%) of L-M cells, 10 ng/ml TNF-α + 500,000 ng/ml TNF antagonist (17 without antagonist)", "setting": "TNF-R1 on L-M cells", "result": 64, "unit": "%"}, {"measurement": "binding affinity relative to recombinant TNF-α", "setting": "[6]", "result": "≥ 2", "unit": "fold"}, {"measurement": "binding affinity relative to recombinant TNF-α (grade)", "setting": "[7]", "result": "≤ 0.001 times that of recombinant TNF-α"}]}]}
